To fix the notation:
B1: TLLQVVGVVSV (SEQ ID No. 7) (peptide)
peptide: TLLQVVGVVSV
B2: ALLTFVWKL (SEQ ID No. 4) (peptide)
peptide: ALLTFVWKL
notes: also called TRPM8-002
B3: SLLSHQVLL (SEQ ID No. 20) (peptide)
peptide: SLLSHQVLL
B4: YLNDSLRHV (SEQ ID No. 21) (peptide)
peptide: YLNDSLRHV
B5: SMLGEEIQL (SEQ ID No. 2) (peptide)
peptide: SMLGEEIQL
notes: also called GREB-001
B6: TLWRGPVVV (SEQ ID No. 10) (peptide)
peptide: TLWRGPVVV
B7: KMDEASAQL (SEQ ID No. 16) (peptide)
peptide: KMDEASAQL
B8: VTAQIGIVAV (SEQ ID No. 1) (peptide)
peptide: VTAQIGIVAV
notes: also called OR51E2-001
B9: GMLNEAEGKAIKL (SEQ ID No. 9) (peptide)
peptide: GMLNEAEGKAIKL
B10: AMAPNHAVV (SEQ ID No. 13) (peptide)
peptide: AMAPNHAVV
B11: ALLESRVNL (SEQ ID No. 6) (peptide)
peptide: ALLESRVNL
notes: also called PDE11-001
B12: KMDEASAQLLA (SEQ ID No. 15) (peptide)
peptide: KMDEASAQLLA
B13: YLEEECPAT (SEQ ID No. 11) (peptide)
peptide: YLEEECPAT
B14: KMDEASAQLL (SEQ ID No. 14) (peptide)
peptide: KMDEASAQLL
B15: SLYDSIAFI (SEQ ID No. 22) (peptide)
peptide: SLYDSIAFI
B16: HLLEDIAHV (SEQ ID No. 3) (peptide)
peptide: HLLEDIAHV
notes: also called NEFH-001
B17: KIFSRLIYI (SEQ ID No. 5) (peptide)
peptide: KIFSRLIYI
notes: also called TRPM8-003
B18: ALGDLVQSV (SEQ ID No. 52) (peptide)
peptide: ALGDLVQSV
B19: SLFHPEDTGQV (SEQ ID No. 49) (peptide)
peptide: SLFHPEDTGQV
notes: also called KLK3-004
B20: YLLKDKGEYTL (SEQ ID No. 53) (peptide)
peptide: YLLKDKGEYTL

For the experiment, the target named is T1, HLA-A*02 (peptide-receptive MHC class I monomer after UV-ligand exchange) (human).
T1 construct: also called HLA-A*02:01; HLA-A*0201
The experiment in a line: UV-ligand exchange, b2m ELISA; peptide exchange yield grade (>=10% +; >=20% ++; >=50 +++; >=75% ++++). From the text: Candidate peptides for T cell based therapies according to the present invention were further tested for their MHC binding capacity (affinity). The individual peptide-MHC complexes were produced by UV-ligand exchange, where a UV-sensitive peptide is cleaved upon UV-irradiation, and exchanged with the peptide of interest as analyzed. Only peptide candidates that can effectively bind and stabilize the peptide-receptive MHC molecules prevent dissociation of the MHC complexes. To determine the yield of the exchange reaction, an ELISA was performed based on the detection of the light chain (β2m) of stabilized MHC complexes. The assay was performed as generally described in Rodenko et al. (Rodenko et al., 2006).
96 well MAXISorp plates (NUNC) were coated over night with 2 ug/ml streptavidin in PBS at room temperature, washed 4× and blocked for 1 h at 37° C. in 2% BSA containing blocking buffer. Refolded HLA-A*02:01/MLA-001 monomers served as standards, covering the range of 15-500 ng/ml. Peptide-MHC monomers of the UV-exchange reaction were diluted 100 fold in blocking buffer. Samples were incubated for 1 h at 37° C., washed four times, incubated with 2 ug/ml HRP conjugated anti-32m for 1 h at 37° C., washed again and detected with TMB solution that is stopped with […]. Absorption was measured at 450 nm. Candidate peptides that show a high exchange yield (preferably higher than 50%, most preferred higher than 75%) are generally preferred for a generation and production of antibodies or fragments thereof, and/or T cell receptors or fragments thereof, as they show sufficient avidity to the MHC molecules and prevent dissociation of the MHC complexes.
In turn, B1 yielded a peptide exchange yield of 20 to 50%.
Consider B2, for which the peptide exchange yield is at least 75%.
Consider B3, for which the peptide exchange yield fell in the range of 50 to 75%.
Under B4 stands 20 to 50%; under B5, at least 75%.
Take B6: the peptide exchange yield lay within 50 to 75%.
B7 showed a peptide exchange yield of 50 to 75%.
Under B8 stands at least 75%; under B9, 50 to 75%; under B10, 50 to 75%.
B11 came in with a peptide exchange yield of at least 75%.
Under B12 stands 50 to 75%; under B13, 20 to 50%; under B14, 20 to 50%.
As for B15, the peptide exchange yield is at least 75%.
Under B16 stands at least 75%; under B17, 50 to 75%; under B18, 50 to 75%.
The molecule B19 came in with a peptide exchange yield of 50 to 75%.
As for B20, the peptide exchange yield is 50 to 75%.

For the origin of these results see patent US20170037089A1 (IMMATICS BIOTECHNOLOGIES, published 2017).
